Substrate: O=c1[nH]c(=O)c2[nH]c(=O)[nH]c2[nH]1
Experiment: purified protein, by the assay type
Details: other: sodium borate buffer, pH 9.2, 25.0 °C

B1: Pig uricase, native (Sigma) (Sus scrofa) (protein)
chain: MAHYRNDYKKNDEVEFVRTGYGKDMIKVLHIQRDGKYHSIKEVATSVQLTLSSKKDYLHGDNSDVIPTDTIKNTVNVLAKFKGIKSIETFAVTICEHFLSSFKHVIRAQVYVEEVPWKRFEKNGVKHVHAFIYTPTGTHFCEVEQIRNGPPVIHSGIKDLKVLKTTQSGFEGFIKDQFTTLPEVKDRCFATQVYCKWRYHQGRDVDFEATWDTVRSIVLQKFAGPYDKGEYSPSVQKTLYDIQVLTLGQVPEIEDMEISLPNIHYLNIDMSKMGLINKEEVLLPLDNPYGRITGTVKRKLTSRL
Question: Which Km does the source give for B1 here?
Answer: 5.85 µM

Question: What about the kcat of the same protein?
Answer: 15 s⁻¹

— patent US8465735B2, “Variant form of urate oxidase and use thereof” (Savient Pharmaceuticals, Inc., priority 2005, dated 2013)
